± gives the half width of the 95% confidence interval.
Tests used:
[1] = folding stability dG unfold from trypsin proteolysis; higher = more stable
Procedure, shortened: (§1)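 Digests were run with trypsin and chymotrypsin at 11 concentrations in threefold dilutions, plus a no-protease condition, on designed mini-proteins in a PA-tagged cDNA display construct. The mini-proteins were under 80 residues, had no cysteine, and were kept only when AlphaFold2 dimer inter-PAE was above 15. After sequencing, Bayesian fitting of the counts gave K50, from which unfolding free energy was derived against a sequence-predicted unfolded-state K50 and a shared folded-state K50, per protease or combined.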

[2] = folding stability dG unfold from chymotrypsin proteolysis; higher = more stable
Procedure, shortened: as §1

[3] = folding stability dG unfold (combined trypsin and chymotrypsin); higher = more stable
Procedure, shortened: as §1

## SAGGSAGGSAGKIEIIKDKKNGKYTVKIRNKDGEEIEIEVDSLEELEELAKKLNIEVEVESAGGSAGGSAGG [r11_1049_TrROS_Hall]
[1]
  folding stability dG unfold: 2.33 ± 0.16 kcal/mol
[2]
  folding stability dG unfold: 3.4 ± 0.21 kcal/mol
[3]
  folding stability dG unfold: 3.18 ± 0.15 kcal/mol

## SAGGSAGGSAGKIEIKVVKKTPNYVYYEIRFEETKKTIIVKAKSKEDAEEAAKKLLKELKSAGGSAGGSAGG [r11_848_TrROS_Hall]
[1]
  folding stability dG unfold: 2.31 ± 0.099 kcal/mol
[2]
  folding stability dG unfold: 2.88 ± 0.062 kcal/mol
[3]
  folding stability dG unfold: 2.62 ± 0.17 kcal/mol

## SAGGSAGGSAGKIEIYPNDNQYYIKITVPRRNPNNGKWERQERTIPMPPDQAKELLKNGISAGGSAGGSAGG [r11_389_TrROS]
[1]
  folding stability dG unfold: 0.0667 ± 0.14 kcal/mol
[2]
  folding stability dG unfold: -0.439 ± 0.45 kcal/mol
[3]
  folding stability dG unfold: -0.17 ± 0.3 kcal/mol

## SAGGSAGGSAGKIKIKNEDGSEYEVKKIEITIKNENGEKKKIKLEIELPKAKEVKIEKKKSAGGSAGGSAGG [r11_804_TrROS_Hall]
[1]
  folding stability dG unfold: -1.2 ± 0.83 kcal/mol
[2]
  folding stability dG unfold: 0.32 ± 0.087 kcal/mol
[3]
  folding stability dG unfold: -0.13 ± 0.29 kcal/mol

## SAGGSAGGSAGKKIKYRITIYNKKTGKTIEIEIEMSEDEIKKIAEELAKKYNVKIKIEPVSAGGSAGGSAGG [r11_515_TrROS_Hall]
[1]
  folding stability dG unfold: 3.71 ± 0.13 kcal/mol
[2]
  folding stability dG unfold: 4.79 ± 0.13 kcal/mol
[3]
  folding stability dG unfold: 4.56 ± 0.18 kcal/mol

## SAGGSAGGSAGKKIPFGKNVKILEIEEIDPDIIIIKFENSVFIVRILPNGEVKVIKFDIDSAGGSAGGSAGG [r11_612_TrMRF]
[1]
  folding stability dG unfold: 1.83 ± 0.042 kcal/mol
[2]
  folding stability dG unfold: 2.4 ± 0.027 kcal/mol
[3]
  folding stability dG unfold: 2.33 ± 0.09 kcal/mol

## SAGGSAGGSAGKKIPKKIIPKINLKVELVKSKIYYDKKKKKIVKIEYEFKITYPNGFKATSAGGSAGGSAGG [r11_890_TrMRF]
[1]
  folding stability dG unfold: 1.44 ± 0.053 kcal/mol
[2]
  folding stability dG unfold: 1.97 ± 0.11 kcal/mol
[3]
  folding stability dG unfold: 1.83 ± 0.2 kcal/mol

## SAGGSAGGSAGKKKIKLLIFDKKTNKLYVVEVELTKDGKIKITKIKEIYEVKPGEKLKLLSAGGSAGGSAGG [r11_750_TrROS_Hall]
[1]
  folding stability dG unfold: 0.981 ± 0.044 kcal/mol
[2]
  folding stability dG unfold: 1.3 ± 0.26 kcal/mol
[3]
  folding stability dG unfold: 1.19 ± 0.25 kcal/mol

## SAGGSAGGSAGKKKKKKKKKPPVTLTVEIEIEINGKKYIAKKKVKLNKDGKLEVEVEIYPSAGGSAGGSAGG [r11_555_TrROS_Hall]
[1]
  folding stability dG unfold: 2.4 ± 0.37 kcal/mol
[2]
  folding stability dG unfold: 3.23 ± 0.065 kcal/mol
[3]
  folding stability dG unfold: 3.13 ± 0.41 kcal/mol

## SAGGSAGGSAGKKKKKPKKKYVFIVIKINLSEEELKKLAEELGIDKVFKNENGYAVLVVKSAGGSAGGSAGG [r11_64_TrROS_Hall]
[1]
  folding stability dG unfold: 2.19 ± 0.12 kcal/mol
[2]
  folding stability dG unfold: 3.56 ± 0.059 kcal/mol
[3]
  folding stability dG unfold: 3.15 ± 0.13 kcal/mol

## SAGGSAGGSAGKKKTITIKIPGMSKEEIAKLIKEKFGPNVKITEIKENKDNLLEITVEVESAGGSAGGSAGG [r11_580_TrROS_Hall]
[1]
  folding stability dG unfold: 2.79 ± 0.22 kcal/mol
[2]
  folding stability dG unfold: 2.79 ± 0.19 kcal/mol
[3]
  folding stability dG unfold: 2.99 ± 0.24 kcal/mol

## SAGGSAGGSAGKKKVKLVEFDEETGYALLEVEDEETGETKLVLVPMTAEELEALPNIEVLSAGGSAGGSAGG [r17_46_TrROS_Hall]
[1]
  folding stability dG unfold: 2.14 ± 0.24 kcal/mol
[2]
  folding stability dG unfold: 1.91 ± 0.079 kcal/mol
[3]
  folding stability dG unfold: 2.08 ± 0.24 kcal/mol

## SAGGSAGGSAGKKKVLMTVDEIEKKLGKKIKPGSLVLVEVENGKVKKIEIFDVKKKPKKKSAGGSAGGSAGG [r11_616_TrROS_Hall]
[1]
  folding stability dG unfold: 0.943 ± 0.09 kcal/mol
[2]
  folding stability dG unfold: 1.07 ± 0.076 kcal/mol
[3]
  folding stability dG unfold: 1 ± 0.21 kcal/mol

## SAGGSAGGSAGKKKYKIVSIEIERNKDGNSLTVKIKLENGKELTLTFPTEEDLKNLKIKASAGGSAGGSAGG [r11_711_TrROS_Hall]
[1]
  folding stability dG unfold: 1.59 ± 0.1 kcal/mol
[2]
  folding stability dG unfold: 3.104 ± 0.028 kcal/mol
[3]
  folding stability dG unfold: 2.78 ± 0.075 kcal/mol

## SAGGSAGGSAGKKPIKEVTITLPPGAKIVKIEIEKTEDGKYILKITVEVDGKLYEFTFELSAGGSAGGSAGG [r11_1013_TrROS_Hall]
[1]
  folding stability dG unfold: 3.13 ± 0.25 kcal/mol
[2]
  folding stability dG unfold: 4.27 ± 0.14 kcal/mol
[3]
  folding stability dG unfold: 3.98 ± 0.29 kcal/mol

## SAGGSAGGSAGKKTYKLVIPVKPDKTVEEIAEEVKKLLGPGSKVEVEEKEDGFATVYVESSAGGSAGGSAGG [r17_20_TrMRF]
[1]
  folding stability dG unfold: 0.292 ± 0.04 kcal/mol
[2]
  folding stability dG unfold: 0.656 ± 0.093 kcal/mol
[3]
  folding stability dG unfold: 0.555 ± 0.097 kcal/mol

## SAGGSAGGSAGKKYKVVEVKENKDGTVELVVENENGEKKKITLSKEELDKLKAGDTVELKSAGGSAGGSAGG [r11_943_TrROS_Hall]
[1]
  folding stability dG unfold: 2.01 ± 0.11 kcal/mol
[2]
  folding stability dG unfold: 2.7 ± 0.057 kcal/mol
[3]
  folding stability dG unfold: 2.47 ± 0.14 kcal/mol

## SAGGSAGGSAGKLRYRYRFDTVLLEVTYDPSTGEVVEVKVIPLSPLPPLTPEELYRLLEDSAGGSAGGSAGG [r11_320_TrMRF]
[1]
  folding stability dG unfold: 2.25 ± 0.053 kcal/mol
[2]
  folding stability dG unfold: 3.071 ± 0.018 kcal/mol
[3]
  folding stability dG unfold: 2.82 ± 0.056 kcal/mol

## SAGGSAGGSAGKMYKLTIEKDGKEIEIIVSEDELKEIAKKLGLPPNAKIKVEKVSPEELKSAGGSAGGSAGG [r17_395_TrROS_Hall]
[1]
  folding stability dG unfold: 2.21 ± 0.095 kcal/mol
[2]
  folding stability dG unfold: 3.8 ± 0.14 kcal/mol
[3]
  folding stability dG unfold: 3.27 ± 0.17 kcal/mol

## SAGGSAGGSAGKPIIKVKIIEKKDGYLKIEIEDEKTGETKTITLKPGQKLEIKLELVKEPSAGGSAGGSAGG [r11_738_TrROS_Hall]
[1]
  folding stability dG unfold: 1.92 ± 0.15 kcal/mol
[2]
  folding stability dG unfold: 1.33 ± 0.064 kcal/mol
[3]
  folding stability dG unfold: 1.62 ± 0.11 kcal/mol

Source: the supplement of paper PMC12764529
